Assay results published in patent US20080153773A1, “MODULATORS OF PHOSPHOTYROSYL PHOSPHATASE ACTIVATOR” (priority 2006, published 2008).

T1: PTPA-PP2A A-C dimer complex (Homo sapiens, UniProt Q15257)
T1 construct: His6 (C); GST (N); His8 (N); made in house; host or cells: PTPA: E. coli BL21(DE3), pET21b; PP2A C: baculovirus / insect cells
T1 sequence (Q15257 1-323 isoform Q15257-2): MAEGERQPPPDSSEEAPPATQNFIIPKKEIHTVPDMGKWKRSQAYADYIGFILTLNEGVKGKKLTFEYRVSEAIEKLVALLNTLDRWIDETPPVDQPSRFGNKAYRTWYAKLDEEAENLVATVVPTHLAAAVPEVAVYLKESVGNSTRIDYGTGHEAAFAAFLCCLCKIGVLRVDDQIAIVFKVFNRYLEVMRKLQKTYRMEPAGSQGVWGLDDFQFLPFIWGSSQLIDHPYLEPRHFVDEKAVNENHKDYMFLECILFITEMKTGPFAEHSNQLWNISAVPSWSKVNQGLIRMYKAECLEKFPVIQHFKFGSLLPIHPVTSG


Key:
PP2A A-C dimer [1] = target: T2, PP2A A-C dimer (Homo sapiens, UniProt P67775); experiment: pNPPase activity assay; assay type: biochemical; details: for stimulation of pNPPase activity of PP2A by PTPA or PTPA mutant: FIG. 6B/6C
T2 construct: GST (N); His8 (N); made in house; C subunit: baculovirus / insect cells; dimer assembled in vitro
T2 sequence (P30153 whole entry partner): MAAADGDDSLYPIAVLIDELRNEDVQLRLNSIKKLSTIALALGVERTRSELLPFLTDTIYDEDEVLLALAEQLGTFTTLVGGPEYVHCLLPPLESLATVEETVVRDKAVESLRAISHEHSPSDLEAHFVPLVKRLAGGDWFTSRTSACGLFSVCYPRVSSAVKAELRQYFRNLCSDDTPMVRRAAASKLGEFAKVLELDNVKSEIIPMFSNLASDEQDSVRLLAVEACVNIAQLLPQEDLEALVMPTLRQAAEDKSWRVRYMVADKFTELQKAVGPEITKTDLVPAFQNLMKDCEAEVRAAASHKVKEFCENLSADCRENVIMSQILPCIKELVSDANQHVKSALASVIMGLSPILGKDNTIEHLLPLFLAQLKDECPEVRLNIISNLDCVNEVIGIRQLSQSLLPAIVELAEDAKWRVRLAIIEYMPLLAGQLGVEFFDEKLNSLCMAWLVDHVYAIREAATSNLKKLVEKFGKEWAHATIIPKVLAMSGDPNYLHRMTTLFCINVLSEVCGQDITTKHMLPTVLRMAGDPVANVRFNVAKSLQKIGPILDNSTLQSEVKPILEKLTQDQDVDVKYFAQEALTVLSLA
T2 sequence (P67775 whole entry): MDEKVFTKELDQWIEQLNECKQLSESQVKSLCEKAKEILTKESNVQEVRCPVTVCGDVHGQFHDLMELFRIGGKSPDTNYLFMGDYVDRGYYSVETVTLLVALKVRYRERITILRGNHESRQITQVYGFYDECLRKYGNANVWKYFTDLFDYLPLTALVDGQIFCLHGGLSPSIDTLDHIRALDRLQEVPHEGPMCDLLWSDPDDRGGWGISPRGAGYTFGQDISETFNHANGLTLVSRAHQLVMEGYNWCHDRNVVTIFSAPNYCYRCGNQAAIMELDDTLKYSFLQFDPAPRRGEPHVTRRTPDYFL
Protocol: (§1) The phosphatase activity using pNPP as substrate was performed on a 96-well plate. Briefly, 50 μl of 50 mM pNPP dissolved in 50 mM Tris-HCl (pH 8.2) buffer containing 1 mM DTT, 10 mM MgCl2 and 0.1 mg/ml BSA was added to each well. The reaction was initiated by addition of 10 μl of PP2A samples in the presence or absence of ATP and PTPA. The plate was incubated at 37° C. for 5-20 minutes and the enzymatic reaction product was measured by the absorbance at 405 nm using a plate reader.

[2] = system: PTPA-PP2A A-C dimer complex; experiment: ATPase activity assay (Malachite Green); assay type: biochemical, human; details: for ATPase activity: with equi-molar amount of PP2A A-C dimer
Protocol: (§2) Protein samples were prepared in 100 mM NaCl, 20 mM HEPES, pH 7.5, and 2 mM dithiothreitol. The release of free phosphate group was measured by the calorimetric Malachite Green Reagent (BioAssay Systems, Hayward, Calif.) using NaH2PO4 as phosphate standard. The protein concentration was determined by a combination of OD absorption at 280 nm and Bio-Rad Protein Assay (Bio-Rad).

PP2A A-C dimer [3] = target: T2, PP2A A-C dimer; experiment: Phosphorylase a phosphatase assay (pSer activity); assay type: biochemical
Protocol: (§3) To measure the phosphatase activity of PP2A, 5 μl of each PP2A sample was added to 45 μl of 0.5 mg/ml of radio-labeled ^32P-phosphorylase b dissolved in 50 mM MOPS buffer containing 1 mM DTT and 5 mM caffeine. Reactions were performed at 37° C. for 10 minutes, and stopped by addition of 10% TCA and 0.5 mg/ml BSA. Samples were kept on ice for 10 minutes to allow complete precipitation of proteins, and were centrifuged for 10 minutes at 14K rpm. Supernatants containing the released ^32P were added to 3 ml Ecosint and the intensity was measured by scintillation counter.

PP2A A-C dimer [4] = target: T2, PP2A A-C dimer; experiment: GST-mediated pull-down assay; assay type: binding; details: FIG. 4A; mutants compared with WT PTPA
Protocol: Approximately 30 μg of stoichiometric PP2A A-C dimer were bound to 30 μl of glutathione resin via GST-A protein. The resin was washed with 200 μl assay buffer 3 times to remove excess unbound PP2A. Then 10 μg of WT or mutant PTPA were allowed to bind the resin in a 125-μl volume. After washing 4 times with an assay buffer containing 25 mM Tris, pH 8.0, 150 mM NaCl, and 2 mM dithiothreitol (DTT), the remaining protein and resin were mixed with 15-μl SDS sample buffer and applied to SDS-PAGE. The results were visualized by SDS-polyacrylamide gel electrophoresis (SDS-PAGE) with coomassie staining.

PP2A A-C dimer [5] = target: T2, PP2A A-C dimer; experiment: Native polyacrylamide gel electrophoresis (native PAGE) binding; details: quantification of native-PAGE, FIG. 4C; read-out: dissociation constant between PP2A A-C dimer and PTPA
Protocol: All assays were performed at 4° C. to offset heat generated by electrophoresis. 6% poly-acrylamide (37.5:1 acrylamide:bis-acrylamide) gels were used under the buffer condition of 65 mM Tris, pH 8.5, and 65 mM boric acid. All protein samples were prepared in a 40 μl volume containing 25 mM Tris, pH 8.0, 150 mM NaCl, 2 mM DTT, and 5% glycerol. After pre-running the gels for 15 minutes, half of each sample (20 μl) was loaded into each lane and was subjected to electrophoresis with constant electric field of 15 volts/cm. The gels were stained using coomassie blue, destained, and dried for photography. The gels were scanned by a densitometer, which allowed the estimate of the binding affinity between WT PTPA and PP2A A-C dimer.

[6] = target: T1, PTPA-PP2A A-C dimer complex; experiment: ATPase activity assay (Malachite Green); assay type: biochemical; details: PTPA alone, without PP2A; 1 mM ATP and 5 mM Mg2+
Protocol: as §2

PP2A A-C dimer [7] = target: T2, PP2A A-C dimer; experiment: Phosphotyrosine phosphatase assay using a fluorogenic peptide as the substrate; assay type: biochemical; details: equi-molar PTPA and PP2A, with ATP/Mg2+, FIG. 6G
Protocol: A protein tyrosine phosphatase assay kit (EMD Biosciences) was used to measure phosphotyrosine phosphatase activity. 50 nM PP2A and PTPA, or PTPA mutants were added to a fluorogenic phosphopeptide substrate (MCA-Gly-Asp-Ala-Glu-pTyr-Ala-Ala-Lys(DNP)-Arg-NH2, 1 μM) and incubated at room temperature under very low light conditions. After 10 minutes of incubation, sodium vanadate solution was added to stop the reaction. […] The fluorescent intensity was monitored at 328 nm (excitation) and 395 nm (emission), using a Hitachi F2500 fluorescence spectrophotometer.

PP2A A-C dimer [8] = target: T2, PP2A A-C dimer; experiment: Substrate preference of PP2A (phosphorylase b versus pNPP); assay type: biochemical; details: for shift of substrate preference of PP2A from phosphorylase b to pNPP: PTPA mutants, FIG. 6F
Protocol: as §1, §3

interaction with PP2A A-C dimer in GST-mediated pull-down (PP2A A-C dimer [4]) | shift of substrate preference of PP2A from phosphorylase b to pNPP (PP2A A-C dimer [8]) | Molecule | ATPase activity ([2]; 1 mM ATP and 5 mM Mg2+) | stimulation of pNPPase activity of PP2A by PTPA or PTPA mutant (PP2A A-C dimer [1]; with ATP/Mg2+) | stimulation of pTyr phosphatase activity of PP2A (peptide substrate) (PP2A A-C dimer [7]) | further results
formed a stable complex | – | phosphotyrosyl phosphatase activator (protein, UniProt Q15257 2-358, looked up, His6 tag) Serine/threonine-protein …: AEGERQPPPDSSEEAPPATQNFIIPKKEIHTVPDMGKWKRSQAYADYIGFILTLNEGVKGKKLTFEYRVSEMWNEVHEEKEQAAKQSVSCDECIPLPRAGHCAPSEAIEKLVALLNTLDRWIDETPPVDQPSRFGNKAYRTWYAKLDEEAENLVATVVPTHLAAAVPEVAVYLKESVGNSTRIDYGTGHEAAFAAFLCCLCKIGVLRVDDQIAIVFKVFNRYLEVMRKLQKTYRMEPAGSQGVWGLDDFQFLPFIWGSSQLIDHPYLEPRHFVDEKAVNENHKDYMFLECILFITEMKTGPFAEHSNQLWNISAVPSWSKVNQGLIRMYKAECLEKFPVIQHFKFGSLLPIHPVTSG | significant ATPase activity | greatly enhanced | enhanced phosphotyrosine phosphatase activity | Kd (PP2A A-C dimer [5]): ~1000 nM; ATPase activity [6]: did not exhibit any detectable ATPase activity; catalytic turnover rate of ATPase activity ([2]; PTPA with equi-molar PP2A A-C dimer, 1 mM ATP and 5 mM Mg2+): approximately 2 per minute; Km ([2]; equi-molar amount of PP2A and PTPA, FIG. 5B): ~400 µM; pNPPase activity of PTPA-stimulated PP2A relative to PP2A in the absence of PTPA (PP2A A-C dimer [1]; equi-molar concentrations, with ATP/Mg2+): approximately 6 fold; PP2A pSer/pThr activity relative to PP2A alone (PP2A A-C dimer [3]; about 20-to-1 molar ratio of PTPA to PP2A (maximal reduction), FIG. 6E): approximately 25%; reduction of PP2A pSer activity (PP2A A-C dimer [3]; equi-molar amount of WT PTPA, FIG. 6D): approximately 45%; effect on pSer activity of PP2A in titration (PP2A A-C dimer [3]; titrated against a fixed amount of PP2A A-C dimer, FIG. 6E): inhibited the pSer activity of PP2A in a concentration-dependent manor; shift of substrate preference of PP2A A-C dimer from phosphorylase b to pNPP (PP2A A-C dimer [8]; stoichiometric ratio of 1:1, FIG. 6F): about 10 fold
significantly compromised binding | not observed | V209D: missense mutant of human PTPA (protein, UniProt Q15257 2-358, looked up, variant V209D) Serine/threonine-protein …: AEGERQPPPDSSEEAPPATQNFIIPKKEIHTVPDMGKWKRSQAYADYIGFILTLNEGVKGKKLTFEYRVSEMWNEVHEEKEQAAKQSVSCDECIPLPRAGHCAPSEAIEKLVALLNTLDRWIDETPPVDQPSRFGNKAYRTWYAKLDEEAENLVATVVPTHLAAAVPEVAVYLKESVGNSTRIDYGTGHEAAFAAFLCCLCKIGVLRDDDQIAIVFKVFNRYLEVMRKLQKTYRMEPAGSQGVWGLDDFQFLPFIWGSSQLIDHPYLEPRHFVDEKAVNENHKDYMFLECILFITEMKTGPFAEHSNQLWNISAVPSWSKVNQGLIRMYKAECLEKFPVIQHFKFGSLLPIHPVTSG | significantly lower or undetectable ATPase activity | – | did not stimulate | –

More lines, now with the values behind:

Molecule | interaction with PP2A A-C dimer in GST-mediated pull-down (PP2A A-C dimer [4]) | shift of substrate preference of PP2A from phosphorylase b to pNPP (PP2A A-C dimer [8]) | ATPase activity ([2]; 1 mM ATP and 5 mM Mg2+) | stimulation of pNPPase activity of PP2A by PTPA or PTPA mutant (PP2A A-C dimer [1]; with ATP/Mg2+) | stimulation of pTyr phosphatase activity of PP2A (peptide substrate) (PP2A A-C dimer [7]) | further results
Nc1ncnc2c1ncn2[C@@H]1O[C@H](COP(=O)(O)OP(=O)(O)OP(O)(O)=S)[C@@H](O)[C@H]1O [ATPγS, reference compound] | – | – | – | – | – | stimulation of pNPPase activity of PP2A by ATP analog (PP2A A-C dimer [1]; provided to PP2A alone or in the presence of PTPA, FIG. 6B): fails to stimulate
C=C1[C@@H](O)[C@@H]2O[C@]3(CC[C@H](/C=C/[C@@H](C)[C@@H]4CC(C)=C[C@@]5(O[C@H](C[C@@](C)(O)C(=O)O)CC[C@H]5O)O4)O3)CC[C@H]2O[C@@H]1[C@@H](O)C[C@H](C)[C@H]1O[C@@]2(CCCCO2)CC[C@H]1C [okadaic acid, reference compound] | – | – | – | – | – | inhibition of PTPA/PP2A ATPase activity ([2]; FIG. 5A): inhibited
ATP [ATP/Mg^2+, reference compound] | – | – | – | – | – | effect of ATP/Mg2+ on PP2A pSer activity (PP2A A-C dimer [3]; with PTPA or mutants, FIG. 6D): did not effect
G205D: missense mutant of human PTPA (protein, UniProt Q15257 2-358, looked up, variant G205D) Serine/threonine-protein …: AEGERQPPPDSSEEAPPATQNFIIPKKEIHTVPDMGKWKRSQAYADYIGFILTLNEGVKGKKLTFEYRVSEMWNEVHEEKEQAAKQSVSCDECIPLPRAGHCAPSEAIEKLVALLNTLDRWIDETPPVDQPSRFGNKAYRTWYAKLDEEAENLVATVVPTHLAAAVPEVAVYLKESVGNSTRIDYGTGHEAAFAAFLCCLCKIDVLRVDDQIAIVFKVFNRYLEVMRKLQKTYRMEPAGSQGVWGLDDFQFLPFIWGSSQLIDHPYLEPRHFVDEKAVNENHKDYMFLECILFITEMKTGPFAEHSNQLWNISAVPSWSKVNQGLIRMYKAECLEKFPVIQHFKFGSLLPIHPVTSG | did not have a significant effect | not observed | significantly lower or undetectable ATPase activity | do not stimulate | did not stimulate | –
